{"source": "patent US20160053242A1", "about": "“THERMOSTABLE NUCLEASE” (priority 2013, published 2016)", "key": {"[1]": {"system": "plasmid DNA pET-24a(+) (closed circular double stranded)", "assay": "Assay of nuclease activity, substrate specificity: plasmid DNA", "settings": "no metal ion added", "procedure": "(§1) Standard (20 μl) reaction mixture contained 2 μg of calf thymus dsDNA in activity buffer (20 mM Tris-HCl, 20 mM MgCl2 at pH 7.24). When required, several concentrations of alternative divalent cations, BaCl2, CaCl2, NaCl, MnSO4, NiSO4, MgCl2, CoCl2, KCl, were tested and the effects of other compounds (0.1, 0.25, 0.5 and 1 mg/ml BSA, 0.05, 0.1, 0.5 and 1 mM dNTPs, 2, 5, 10, 20, 50, 100 mM EDTA, 5, 15, 30, 50% glycerol, 0.1, 0.25, 0.5 and 1% SDS, and 1, 2, 3, 4, 5, 6, 7 and 8 M urea) were investigated. […] In all cases, the reaction was started by the addition of 2 μl of nickel column purified enzyme, and terminated by adding 4 μl of agarose gel loading buffer (0.1 M EDTA, pH 8.0, 0.05% bromophenol blue, 50% glycerol). Nuclease activity was evaluated by assessing DNA degradation level on gel electrophoresis (1.2% agarose, with 0.25 μg/ml of ethidium bromide, at 170 V for 30 min, in Tris-borate EDTA buffer)."}, "[2]": {"system": "calf thymus dsDNA", "assay": "Assay of nuclease activity, DNA degradation level on agarose gel", "procedure": "as §1"}, "[3]": {"assay": "Active two-dimensional gel electrophoresis (isoelectric point)", "type": "physicochemical", "settings": "partially purified crude extracts of CCRI-10035 heated at 80° C. for 1 h; 2D gel", "experimental": "Protein concentration was measured by the method of Bradford. An 18 cm Immobiline™ pH 4-7 DryStrip was applied. Proteins (200 μg) were diluted in T8 buffer (7 M Urea, 3% W/V CHAPS; 3-[(3-cholamidopropyl)dimethylammonio]-1-propanesulfonate, 20 mM DTT; dithiothreitol, 5 mM TCEP; tris(2-carboxyethyl)phosphine hydrochloride) and precipitated with 2-D clean-up kit (Amersham Biosciences) to remove substances interfering with isoelectric focusing (IEF) such as detergents, salts, lipids, phenolic and nucleic acids. IEF was carried out using IPTGhor IEF system (Amersham Biosciences) for the first dimension as recommended by the manufacturer. After first dimension, the strip was cut 5 cm from (+) terminal and 7 cm from (−) terminal. The cut strip was linked with agarose onto 12% SDS-PAGE containing 20 μg/ml dsDNA calf thymus DNA (Calbiochem). Markers and proteins were prepared according to the manufacturer's instructions on Whatman paper and run alongside the cut strip. After electrophoresis, the gel was rinsed with water, and placed into the gel incubation buffer (20 mM Tris-HCl, pH 9.08, 20 mM MgCl2). Two hours later, the gel was rinsed again and incubated in the gel incubation buffer overnight at 37° C. […] Trypsin fragmentation results were analyzed using Mascot software (Matrix Science) for peptide identification. […]"}, "[4]": {"system": "calf thymus ssDNA", "assay": "Assay of nuclease activity, substrate specificity: ssDNA", "settings": "no metal ion added", "procedure": "as §1"}, "[5]": {"settings": "digestion of calf thymus dsDNA at 37° C."}}, "data": [{"molecule": "Nucyep: thermostable non-specific nuclease from Yersinia enterocolitica subsp. palearctica; 283-amino-acid protein, SEQ ID NO. 6 (protein, Yersinia enterocolitica sub. paleartica) MKFNLIKLLPVLLLTACTTTDHSMSAPKTILSAPTVTEQNLPAAAIDNCLVGCPTGGSDQTVIRDVYTLNNNSHTKFANWVAYKVTKSSQASNHPRKWAQDPDLPDSDTLAPADYTGANQKLAVDRGHQAPLSLLAGNEDSQALNYLSNITPQKAALNQGAWVRLEDQERNLANRPDVTAVYSVTGPLFERHIATLPAKPTVEIPSGYWKIIFIGTSPDKGQYAAFLMDQNTAKSANFCDYQVNVDTIEAKTNPQLTIWSNLPADVAQIIKSQKGTLAQTIGCD", "values": [{"measurement": "Nuclease activity on plasmid (circular ds) DNA without addition of metal ions", "setting": "[1]", "value": "but not the circular dsDNA or RNA"}, {"measurement": "Effect of 2 mM Ca2+ on nuclease activity", "setting": "[2]; 2 mM Ca2+", "value": "inhibited"}, {"measurement": "Effect of 2 mM CuSO4 on nuclease activity", "setting": "[2]; 2 mM CuSO4", "value": "inhibited"}, {"measurement": "Effect of 2 mM ZnCl2 on nuclease activity", "setting": "[2]; 2 mM ZnCl2", "value": "inhibited"}, {"measurement": "Effect of 0.1% SDS on nuclease activity", "setting": "[2]; 0.1% SDS", "value": "inhibited"}, {"measurement": "Effect of 100 mM EDTA on nuclease activity", "setting": "[2]; EDTA 100 mM", "value": "inhibited"}, {"measurement": "Activity left after heating at 80° C. for 60 minutes (1 h)", "setting": "[2]; [5]", "value": "~5", "unit": "%"}, {"measurement": "Activity left after heating at 100° C. for 20 minutes", "setting": "[2]; [5]", "value": "~5", "unit": "%"}, {"measurement": "Optimum temperature", "setting": "[2]; examined within 0 to 100° C.", "value": "about 35 °C"}, {"measurement": "Activity after exposure to longer times at 100° C.", "setting": "[2]; longer than 20 minutes at 100° C., compared to undigested controls", "value": "no remaining nuclease activity"}, {"measurement": "Nuclease activity on dsDNA without addition of metal ions", "setting": "[2]; no metal ion added, linear dsDNA", "value": "able to degrade"}, {"measurement": "Isoelectric point of the spot with heat-stable nuclease activity", "setting": "[3]", "value": "about 5.2"}, {"measurement": "Nuclease activity on ssDNA without addition of metal ions", "setting": "[4]", "value": "able to degrade"}]}]}
